Data: a protein production outcome set (Wang et al. 2014)

Test: label from the status in PepcDB records
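Further: failed if final PepcDB status was selected cloned or expressed and not failed if soluble or beyond.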

Sequence | protein production
PAKRAFSNADQFVETMLPLAKEAAARIGVDPVMLVAQAALETGWGKSIMRQQDGSSSHNLFGIKAAGSWKGAEARAITSEFRDGKMVKETADFRSYDSYADSFHDLVSLLQNNNRYKDVVNSADKPEQFVKELQKAGYATDPAYASKISQIAKQMKS | not failed
PDATSKKVVPLGVEIYEINGPFFFGVADRLKGVLDVIEETPKVFILRMRRVPVIDATGMHALWEFQESCEKRGTILLLSGVSDRLYGALNRFGFIEALGEERVFDHIDKALAYAKLLVETAEERGRES | not failed
PEDAINDESDDEDKVDKDDRLPQSDKDKRIVPENEYSDSEDEGEGGRRDNRSYKGQRKRPRLDKDTNSNKASSETSSEIKDEKEKGDGADGEESTASNTNS | failed
PEDSARVWQAFSRTLQTGEHVEIDYRYLDPGADDWIHLHVAWRGVRGSSPDTYDVIGITQNVTELVAARDAALAAAETKSQFLANMSHEIRTPMNGVLGVLHLLKTEK | failed
PFYYRLHFCDTMELFIETLTGTCFELRVSPFETVISVKAKIRRLEGIPICRQHLIWNNMELENDYCLNDYNISEGCTLKLVLAMRGGPINTRRVPTDDPLR | failed
PGEAVGVTIFEMALDELAEKAGLDPLELRLRNIPEEDPETGKPFTSHMLAEALRDGADRFGWSDRRAPGERRQGEWLIGMGMASAVRVNMLHKARVRVTLTGEGALVESSMTDIGTGTYTILTQIVAEMLGLAPDRVRTVLGDTDLPEGSGSGGSIGAASNGSAAFLACEEIRRQIAAGMGCPEEELTLKDGRATCGNRTRDLAEIVTQPLSAEGHFEPGKALKGVRSSTFGAHFAEVAVNEITGEVRVRRMLGAFAAGRILNEKTARSQCLGGMTFGIGMALMEEMVHDRRFGQVVSRDLANYHIPAHADVPALEVHFLEERDSYGGTLQAKGIGELGICGSGAAVLNAIHNACGVRVRDLPATPDKVLDGL | failed
PIGKSADNMYSYLALVQDDPTVQVVNMAQKAYVEHYIQGDPDLAKLPVLSAAAPFKVGGRKNDPASFVEVEKGQLTFRNAADLYLYPNTLVVMKVSGKEVKEWLECSAGQFNQIDPASSKPQSLINWDGFRTYNFDVIDGVNYQIDVTQPARYDGECQMIHPQAERIKHLTFNGKPVDPQATFLVATNNYRAYGGKFAGTGESHIAFASPDENRSVLAAWIGAQSKKEGAIHPAADNNWRLAPIHSN | failed
PKLTRVDIAHDDFEGKHISVDWGNMQDGLGGFQLGNRAPNIEHKGNWRRPNGKGRTLCIGSRDSGKYLRLYEKGRAEGDPNDNWQRAEVEFKSIDRVLPFDMLLAPSEFFIAAYPCFRDLAQHLQPERIETISKTAQINFQTAIENLKHQYGKYINIFKEVFEPEELINLISCSDPLAYPKRLDHVLITARRM | failed
PLALFKWDLGFNLLECNQSAISMLNYTEDELKQCDFISALVPINEQKRVNKTCSDLLVNEGGEHGFNSLIKQNGNIILTEWHNSLIKDDS | failed
PLLDSFKVDHTKMNAPAVRIAKTMLTPKGDNITVFDLRFCIPNKEILSPKGIHTLEHLFAGFMRDHLNGDSIEIIDISPMGCRTGFYMSLIGTPNEQKVSEAWLASMQDVLGVQDQASIPELNIYQCGSYTEHSLEDAHEIAKNVIARGIGVNKNEDLSLDNSLLK | not failed
PLPNPEGLDSDFLAVLSDYPSPDISPPIFRRGEKLRVISDEGGWWKAISLSTGRESYIPGICVARV | not failed
PMEDEPTSKKLKTEDSLMPEEEFLRRNKGPVSIKVQVPNMQDKTEWKLNGQVLVFTLPLTDQVSVIKVKIHEATGMPAGKQKLQYEGIFIKDSNSLAYYNMANGAVIHLALKERGGRKK | failed
PPGPCLPPRLQGRPKAKEIQLRWGPPLVDGGSPISCYSVEMSPIEKDEPREVYQGSEVECTVSSLLPGKTYSFRLRAANKMGFGPFSEKCDITTAPG | not failed
PPNDNIPTPLEKEEKAKEASDNKEKTKETSNSAQNAQNTQASDKTSDNKSTAPKETIKHFTQQLKQEIQEYKPPMSRISMDLFPKELGKVEVIIQKVGKNLKVSVISHNNSLQTFLDNQQDLKNSLNALGFEGVDLSFSQDS | failed
PPQAMNALMRLNQLKPGLQYKLVSQTGPVHAPIFTMSVEVDGNSFEASGPSKKTAKLHVAVKVLQDMGLPTGAEGRDSSKGEDS | failed
PPVIRQGPVNQTVAVDGTFVLSCVATGSPVPTILWRKDGVLVSTQDSRIKQLENGVLQIRYAKLGDTGRYTCIASTPSGEATWSAYIEVQEFGVPVQPPRPTDPNLIPSAP | not failed
PQKIFTPSAEIVKYTKIIAMEKLYAVFTDYEHDKVSRDEAVNKIRLDTEEHLKEKFPEVDQFEIIESFNIVAKEVFRSIILNEYKRCDGRD | not failed
PRPAVSVAPTTEAESFVQDRIEEDGLHVVHFWAPWCANSRNELDNGWAGLVADNPDVTFTFVTVWNDDESGAAMLNDYNLPDRVVEVTQPDLGPSDTEANRRYSFLGLPVTWIPSTWIFHSNGELAFAMNYGEMEMQTVQRLLDATSADW | failed
PTLDSVEDGVLKKVVINISNSCNLSCSYCYADGGNYGMDNRIMDLTTADNIIQEIASKGVTQINRLILFGGEPFLNIELFIYFIEKLSTLLNVVKIETVTNGTVLNKRVKEMLVKFHPYLTISLDGPEIVHDRLRGRGSHRKTLRFINYLKNIDYE | failed

Sequence | protein production
QAEMTQRMQQLEALNDLNRAILAASDAEQIAQIGLRSLRRQVPFWGATAMLIDWESSCARVLAIERAPGASYDPGQRLSLVSYGMEDLERMKRGETCVVTDLGQIPRRALTLERLYQQGIQSYARIPLLAEGRLLGMLNLASDAVGAFDAAQLDVAQAYARHLAVSLQQSLL | failed
QAPLRIECTDISHIQGTDVVASLVVFEDGLPRKSDYRRYRVKEAAGDGHSNDVASIAEITRRRFLRHNQDKLAVPEAEEFDGSTFSDEKVEEMSTDARRFAYPPQIFIVDGGAPQVAAAQEVFDELGIVDVVLIGLAKRLEEIWLPGDPDPVILPRNSQALFLLQQIRDEAHRFAITYHRQQRSKRMRVSELDSIKG | failed
QAVPCRAPKVGRLIYTAGGYFRQSLSYLEAYNPSNGSWLRLADLQVPRSGLAGCVVGGLLYAVGGRNNSPDGNTDSSALDCYNPMTNQWSPCASMSVPRNRIGVGVIDGHIYAVGGSHGCIHHSSVERYEPERDEWHLVAPMLTRRIGVGVAVLNRLLYAVGGFDGTNRLNSAECYYPERNEWRMITPMNTIRSGAGVCVLHNCIYAAGGYDGQDQLNSVERYDVETETWTFVAPMRHRSALGITVHQGKIYVLGGYDGHTFLDSVECYDPDSDTWSEVTRMTSGRSGVGVAVTMEPCRKQIDQQNCTC | not failed
QIGVPPSGPMDDLSFRLGNTALGNPEGAPGLEFTMAGPALRFTHATTVCVTGADVTVTVNGNTANTWEPITVPENGLLDVGSADGSGLRGYILFEGGLDVPRYLGSASTFTLGQFGGHGGRVLRTSDVLRTVSDHLPETVPGVVPEESRPALTSDWELKVVEGPHGAPEFFEREDIEELYAAEYEVHFNSARTGVRLIGPKPRWARNDGGEAGLHPSNIHDTAYSVGALDFTGDTPILLGPDGPSLGGFVCPVTVVTGERWKLGQLRPGDKVRFVPIRSVEAPSVKELGAAR | failed
QIHLFSEPQFQGHSQSFEETTSQIDDSFSTKSCRVSGGSWVVYDGENFTGNQYVLEEGHYPCLSAMGCPPGATFKSLRFI | not failed
QKEKCFKCNKCEKTFSCSKYLTQHERIHTRGVK | not failed
QKIEKQYDADLEQILIQWITTQCRKDVGRPQPGRENFQNWLKDGTVLCELINALYPEGQAPVKKIQASTMAFKQMEQISQFLQAAERYGINTTDIFQTVDLWEGKNMACVQRTLMNLGGLAVARDDGLFSGDPNWFPKKSKE | not failed
QKKDTSNHFHVFVGDLSPEITTEDIKAAFAPFGRISDARVVKDMATGKSKGYGFVSFFNKWDAENAIQQMGGQWLGGRQIRTNWATRKPPAPKSTYESNTKQ | not failed
QKVPLPSLSPTMQAGTIARWEKKEGDKINEGDLIAEVETDKATVGFESLEECYMAKILVAEGTRDVPIGAIICITVGKPEDIEAFKNYTLDSSAA | not failed
QPSRFLLKVLAGANIGAEFHLDSGKTYIVGSDPQVADIVLSDMSISRQHAKIIIGNDNSVLIEDLGSKNGVIVEGRKIEHQSTLSANQVVALGTTLFLLVDYAAPS | not failed
QQKLAANVFKNSQDGVLIYDADGKLTLMNPAFTDIFGYQMSELSNIPMLTLFDGHHFTTSTSLITESIQRFGQWHGEVLEKDKYGAELPLYVKASKIIDTEQYGQNSYIFIFTNLS | failed
QRISLEIMTLQPRCEDVETAEGVALTVTGVAQVKIMTEKELLAVACEQFLGKNVQDIKNVVLQTLEGHLRSILGTLTVEQIYQDRDQFAKLVREVAAPDVGRMGIEILSFTIKDVYDKVDYLSSLGKTQT | not failed
QSAKEAIEAANADFVKAYNSKDAAGVASKYMDDAAAFPPDMARVDGRQNIQKLWQGAMDMGISELKLTTLDVQESGDFAFESGSFSLKAPGKDSKLVDAAGKYVVVWRKGQDGGWKLYRDIWNSDPAK | not failed
QSTGQVTLGVLTDMSSVYADSAGKGSVAAVQLAIEDVGGKALGQPVKLVSADYQMKTDVALSIAREWFDRDGVDAIFDVVNSGTALAINNLVKDKKKLAFITAAAADQIGGTECNGYGIGFLYNFTSIVKTVVQAQLAKGYKTWFLMLPDAAYGDLMNAAIRRELTAGGGQIVGSVRFPFETQDFSSYLLQAKASGAQLIVSTSGGAANINIMKQAREFGLPSKTQKVGGMIDILTDVKSAGLRVMQGQEYATSFYWNMDDRTRAFAKRFYAKMGKMPTNNQAGGYSAALQYLKAVNAIGSKDPQKVFAYLKTIKFDDAVTRHGTLRPGGRLVRDMYLVRAKKPEDQKGDWDYYDVVATIGPEQAFGPLSESRCAMDK | not failed
QSVHDIEKTLIRIGVVQWQMRAMNDLEDLLDQAEFFISSLANYKADFALFPEFFNAPLMGLQNDQNSVEAIRFLASFTEEIKNRFSQMAVTYNINIIAGSMPLIEDGKLYNVAYLLQRDGEINAQYKIHITPHEQKDWVIDGGDNVQVFETDAGKVGILICYDSEFPELGRMLAEQGAQIIFVPFWTDTKNGYQRVRICSQSRAIENECYVAIGGSVGNLPRVDNVDIQYAQSAVFSPSDIYFPHDATLTEASANTEMIIFADVDLTKLKQLNTEGSVTNLRHRRLDLYGAFTTPKE | failed
QTASGASYVLREIGADDTATAFAALSVLRSSLTDIGRFTEQINKIQRPQGYRLLGIFEECKHNAVAVCGFREACTLAGGRHIHIDDIVTLPQSRRKGYASRLLEEVRKIGAETGVTKIHLNVHVNHDRTDAHRLYFKNGFEICAYHFRCDPK | failed
QTDPKKPTTDEGTASSEVNATEEMSTLVNYIEPVKFKSFEAARKRNKCFEMSSFVETKAMEQLTKSPMEFVEYNKQQLSRIYPKGTRVDSSNYMPQLFWNVGCQLVALNFQTLDVAMQLNAGVFEYNGRSGYLLKPEFMRRPDKSFDPFTEVIVDGIVANALRVKVISGQFLSDRKVGIYVEVDMFGLPVDTRRKYRTRTSQGNSFNPVWDEEPFDFPKVVLPTLASLRIAAFEEGGKFVGHRILPVSAIRSGYHYVCLRNEANQPLCLPALLIYTEASDYIPDDHQDYAEALINPIKHVSLMDQRARQLAALIGESEAQAGQETCQDTQSQQLGSQPSSNPTPSPLD | failed
RETLDNLSEAVAVFGSNGCAQLFNPPFARMWNLSAEALQSQPHIEAIEEWCRPLFDDDVFWQALRGAITGIDDRRHVLLKIERKDGSVLACKTMPLPDGATMLTFQDITDTENVERALRERNEALETADRIKIDFVHHVSYELRSPLTTIIGFA | failed
